Measured values reported in publication PMC10729762, “CsrA selectively modulates sRNA-mRNA regulator outcomes”.

biological target: T1, CsrA (UniProt P69913 1-61); assay: EMSA; 6 uM CsrA; 10 nM denatured RNA, 0-6 uM CsrA, 0-3 uM Hfq; 1X binding buffer (10 mM Tris-HCl pH 7.5, 10 mM MgCl2, 100 mM KCl) plus CsrA dilution buffer, 11% glycerol, 20 mM; details: protein: recombinant; chain copies: 2; label: internal 32P-UTP
T1 sequence (P69913 whole entry): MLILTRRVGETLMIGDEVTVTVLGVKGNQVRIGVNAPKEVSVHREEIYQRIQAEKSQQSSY

Binder	binding result
MicL-S (structured_RNA) RNA: AUUUUUACCGUUGCAUCAUGUCGCCCAAUAUGAUGCUUGCUCGUACCAGGCCCCUGCAAUUUCAACAGGGGCCUUUUUUU	binds
GlmZ (structured_RNA) RNA: GUAGAUGCUCAUUCCAUCUCUUAUGUUCGCCUUAGUGCCUCAUAAACUCCGGAAUGACGCAGAGCCGUUUACGGUGCUUAUCGUCCACUGACAGAUGUCGCUUAUGCCUCAUCAGACACCAUGGACACAACGUUGAGUGAAGCACCCACUUGUUGUCAUACAGACCUGUUUUAACGCCUGCUCCGUAAUAAGAGCAGGCGUUUUUUU	binds
SibD (structured_RNA) RNA: ACAAGGGUGAGGGAGGAUUUCUCCCCCCUCUGAUUGGCUGUUAAUAAGCUGCGAAACUUACGAGUAACAACACAAUCAGUAUGAUGACGAGCUUCAUCAUAACCCUUUCCUUCUGUAAGGCCCCCUUCUUCGGGAGGGGCUUU	binds

biological target: T1, CsrA; assay: EMSA; 3 or 6 uM CsrA; 10 nM denatured RNA, 0-6 uM CsrA, 0-3 uM Hfq; 1X binding buffer (10 mM Tris-HCl pH 7.5, 10 mM MgCl2, 100 mM KCl) plus CsrA dilution buffer, 11% glycerol, 20 mM; details: protein: recombinant; chain copies: 2; label: internal 32P-UTP

Binder	binding result
GadY (structured_RNA) RNA: ACUGAGAGCACAAAGUUUCCCGUGCCAACAGGGAGUGUUAUAACGGUUUAUUAGUCUGGAGACGGCAGACUAUCCUCUUCCCGGUCCCCUAUGCCGGGUUUUUUU	binds
ChiX (structured_RNA) RNA: ACACCGUCGCUUAAAGUGACGGCAUAAUAAUAAAAAAAUGAAAUUCCUCUUUGACGGGCCAAUAGCGAUAUUGGCCAUUUUUUU	binds
McaS (structured_RNA) RNA: ACCGGCGCAGAGGAGACAAUGCCGGAUUUAAGACGCGGAUGCACUGCUGUGUGUACUGUAGAGUCUGGCGGAUGUCGACAGACUCUAUUUUUU	binds
SibA (structured_RNA) RNA: GUGAGGGUUAGGGAGAGGUUUCCCCCUCCCCCUGGUGUUCUUAGUAAGCCUGGAAGCUAAUCACUAAGAGUAUCACCAGUAUGAUGACGUGCUUCAUCAUAACCCUUUCCUUAUUAAAAGCCCUCUUCUCCGGGAGAGGCUUU	binds
SgrS (structured_RNA) RNA: GAUGAAGCAAGGGGGUGCCCCAUGCGUCAGUUUUAUCAGCACUAUUUUACCGCGACAGCGAAGUUGUGCUGGUUGCGUUGGUUAAGCGUCCCACAACGAUUAACCAUGCUUGAAGGACUGAUGCAGUGGGAUGACCGCAAUUCUGAAAGUUGACUUGCCUGCAUCAUGUGUGACUGAGUAUUGGUGUAAAAUCACCCGCCAGCAGAUUAUACCUGCUGGUUUUUUUU	binds
DsrA (structured_RNA) RNA: AACACAUCAGAUUUCCUGGUGUAACGAAUUUUUUAAGUGCUUCUUGCUUAAGCAAGUUUCAUCCCGACCCCCUCAGGGUCGGGAUUU	binds

same assay, conditions: protein: recombinant; chain copies: 2; label: internal 32P-UTP (EMSA)

Binder	binding result
Spot 42 (spf) (structured_RNA) RNA: GUAGGGUACAGAGGUAAGAUGUUCUAUCUUUCAGACCUUUUACUUCACGUAAUCGGAUUUGGCUGAAUAUUUUAGCCGCCCCAGUCAGUAAUGACUGGGGCGUUUUUUA	binds

biological target: T1, CsrA; assay: EMSA; up to 6 uM CsrA; 10 nM denatured RNA, 0-6 uM CsrA, 0-3 uM Hfq; 1X binding buffer (10 mM Tris-HCl pH 7.5, 10 mM MgCl2, 100 mM KCl) plus CsrA dilution buffer, 11% glycerol, 20 mM; details: protein: recombinant; chain copies: 2; label: internal 32P-UTP

Binder	binding result
GcvB (structured_RNA) RNA: ACUUCCUGAGCCGGAACGAAAAGUUUUAUCGGAAUGCGUGUUCUGGUGAACUUUUGGCUUACGGUUGUGAUGUUGUGUUGUUGUGUUUGCAAUUGGUCUGCGAUUCAGACCAUGGUAGCAAAGCUACCUUUUUUCACUUCCUGUACAUUUACCCUGUCUGUCCAUAGUGAUUAAUGUAGCACCGCCUAAUUGCGGUGCUUUUUUUU	no binding
SibC (structured_RNA) RNA: GUAAGGGUAAGGGAGGAUUGCUCCUCCCCUGAGACUGACUGUUAAUAAGCGCUGAAACUUAUGAGUAACAGUACAAUCAGUAUGAUGACAAGUCGCAUCAUAACCCUUCUCCUUCAAGCCCUCGCUUCGGUGAGGGCUUU	no binding
